Starred links: 1 amine or outer side, 2 acyl side, 3 side chain; linkers in the order of their positions; H or OH if unused. Non-standard residues stand in square brackets, D forms with d. Groups on a side chain read outwards from the residue. No end group written: not given here. *: point of attachment. γGlu = O=C(O)[C@H](CCC(=O)[*:2])N[*:1]; Stearoyl = CCCCCCCCCCCCCCCCCC(=O)*

The experiment concerns the target human GLP-1 receptor (human, UniProt P43220). The experiment can be described thus: cell-based or functional assay.

Turning to H[dS]QGTFTSDLSKQK([γGlu-Stearoyl])DEQLAKDFIEWLKAGGPSSGAPPPS-NH2 [peptide of SEQ ID NO: 6 (GLP-1/Glucagon agonist, exendin-4 derivative)], the “EC50 hGLP-1R (cAMP response, HTRF)” value was determined as 5.1 pM.

The values are drawn from patent US10792367B2, “Conjugates comprising an GLP-1/glucagon dual agonist, a linker and hyaluronic acid” (SANOFI, dated 2020).
